Test results as given in patent publication US20220267407A1 (published 2022).

Key:
[1] = target: T1, EBNA3C (EBV) peptide on HLA-B*44:02 (human); experiment: cytokine release
T1 peptide: SERLVPEESY

[2] = target: T2, EBNA3C (EBV) peptide on HLA-B*44:02 (human); experiment: cytokine release
T2 peptide: WLLTSPSQSW

[3] = target: T3, EBNA3C (EBV) peptide on HLA-B*44:02 (human); experiment: cytokine release
T3 peptide: LLTSPSQSW

[4] = target: T4, EBNA3C (EBV) peptide on HLA-B*44:02 (human); experiment: half-maximum IFN-gamma release; peptide titration on K562-HLA-B*44:02, ELISA after 24 h, E:T 1:1; full-length, on cells
T4 peptide: AEGGVGWRHW

[5] = target: T5, EBNA3C (EBV) peptide on HLA-C*06:02 (human); experiment: cytokine release
T5 peptide: RRYRRIYDL

[6] = target: T6, EBNA3C (EBV) peptide on HLA-C*06:02 (human); experiment: cytokine release
T6 peptide: AREAEVRFL

[7] = target: T7, EBNA3C (EBV) peptide on HLA-C*06:02 (human); experiment: cytokine release
T7 peptide: LRGKWQRRY

[8] = target: T8, EBNA3C (EBV) peptide on HLA-C*06:02 (human); experiment: cytokine release
T8 peptide: ERYAREAEV

[9] = target: T9, EBNA3C (EBV) peptide on HLA-C*06:02 (human); experiment: cytokine release
T9 peptide: SRRRRGACV

[10] = target: T10, EBNA3C (EBV) peptide on HLA-C*06:02 (human); experiment: cytokine release
T10 peptide: NLLDFVRFM

[11] = target: T11, EBNA3C (EBV) peptide on HLA-C*06:02 (human); experiment: cytokine release
T11 peptide: RRRRGACVV

[12] = target: T12, EBNA3C (EBV) peptide on HLA-C*06:02 (human); experiment: cytokine release
T12 peptide: VRFLRGKWQ

[13] = target: T13, EBNA3C (EBV) peptide on HLA-C*06:02 (human); experiment: cytokine release
T13 peptide: RRRGACVVY

[14] = target: T14, EBNA3C (EBV) peptide on HLA-C*06:02 (human); experiment: cytokine release
T14 peptide: QRRYRRIYD

[15] = target: T15, EBNA3C (EBV) peptide on HLA-C*06:02 (human); experiment: cytokine release
T15 peptide: VRFMGVMSS

[16] = target: T16, EBNA3C (EBV) peptide on HLA-C*06:02 (human); experiment: cytokine release
T16 peptide: YAREAEVRFL

[17] = target: T17, EBNA3C (EBV) peptide on HLA-C*06:02 (human); experiment: cytokine release
T17 peptide: NRVGADSIM

[18] = target: T18, EBNA3C (EBV) peptide on HLA-C*06:02 (human); experiment: cytokine release
T18 peptide: LHHIWQNLL

[19] = target: T19, EBNA3C (EBV) peptide on HLA-C*06:02 (human); experiment: cytokine release
T19 peptide: RRGIKEHVI

[20] = target: T20, EBNA3C (EBV) peptide on HLA-C*06:02 (human); experiment: cytokine release
T20 peptide: YRRIYDLIE

[21] = target: T21, EBNA3C (EBV) peptide on HLA-C*06:02 (human); experiment: cytokine release
T21 peptide: RRYRRIYDLI

[22] = target: T22, EBNA3C (EBV) peptide on HLA-C*06:02 (human); experiment: cytokine release
T22 peptide: ARRGIKEHV

[23] = target: T23, EBNA3C (EBV) peptide on HLA-C*06:02 (human); experiment: cytokine release
T23 peptide: QRRYRRIYDL

[24] = target: T24, EBNA3C (EBV) peptide on HLA-C*06:02 (human); experiment: cytokine release
T24 peptide: WQRRYRRIY

[25] = target: T25, EBNA3C (EBV) peptide on HLA-C*06:02 (human); experiment: cytokine release
T25 peptide: FLRGKWQRRY

[26] = target: T26, EBNA3C (EBV) peptide on HLA-C*06:02 (human); experiment: cytokine release
T26 peptide: RRGACVVYD

[27] = target: T27, EBNA3C (EBV) peptide on HLA-C*06:02 (human); experiment: cytokine release
T27 peptide: VYDDDVIEV

[28] = target: T28, EBNA3C (EBV) peptide on HLA-C*06:02 (human); experiment: cytokine release
T28 peptide: YAREAEVRF

[29] = target: T29, EBNA3C (EBV) peptide on HLA-C*06:02 (human); experiment: cytokine release
T29 peptide: GCQNAARTL

[30] = target: T30, LMP1 (EBV) peptide on HLA-B*57:01 (human); experiment: cytokine release
T30 peptide: WTLLVDLLW

[31] = target: T31, LMP1 (EBV) peptide on HLA-B*57:01 (human); experiment: cytokine release
T31 peptide: IALYLQQNWW

[32] = target: T32, LMP1 (EBV) peptide on HLA-B*57:01 (human); experiment: cytokine release
T32 peptide: WWTLLVDLLW

[33] = target: T33, LMP1 (EBV) peptide on HLA-B*57:01 (human); experiment: cytokine release
T33 peptide: IIALYLQQNW

[34] = target: T34, LMP1 (EBV) peptide on HLA-B*57:01 (human); experiment: cytokine release
T34 peptide: WTLLVDLLWL

[35] = target: T35, LMP1 (EBV) peptide on HLA-B*57:01 (human); experiment: cytokine release
T35 peptide: LAILIWMYY

[36] = target: T36, LMP1 (EBV) peptide on HLA-B*57:01 (human); experiment: cytokine release
T36 peptide: LLFLAILIW

[37] = target: T37, LMP1 (EBV) peptide on HLA-B*57:01 (human); experiment: cytokine release
T37 peptide: LLLFLAILIW

[38] = target: T38, LMP1 (EBV) peptide on HLA-B*57:01 (human); experiment: cytokine release
T38 peptide: LAILIWMYYH

[39] = target: T39, LMP1 (EBV) peptide on HLA-B*57:01 (human); experiment: cytokine release
T39 peptide: ALYLQQNWW

[40] = target: T40, LMP1 (EBV) peptide on HLA-B*57:01 (human); experiment: cytokine release
T40 peptide: FLAILIWMYY

[41] = target: T41, LMP1 (EBV) peptide on HLA-B*57:01 (human); experiment: cytokine release
T41 peptide: NSNEGRHHL

[42] = target: T42, LMP1 (EBV) peptide on HLA-B*57:01 (human); experiment: half-maximum IFN-gamma release; peptide titration on K562-HLA-B*57:01, ELISA after 24 h, E:T 1:1; full-length, on cells
T42 peptide: IALYLQQNW

B1: TCR58 (TCR, V domains shown)
Valpha: RKEVEQDPGPFNVPEGATVAFNCTYSNSASQSFFWYRQDCRKEPKLLMSVYSSGNEDGRFTAQLNRASQYISLLIRDSKLSDSATYLCVASGDSSYKLIFGSGTRLLVRP
Vbeta: EPEVTQTPSHQVTQMGQEVILRCVPISNHLYFYWYRQILGQKVEFLVSFYNNEISEKSEIFDDQFSVERPDGSNFTLKIRSTKLEDSAMYFCASSDPLSTYNEQFFGPGTRLTVL
[1]
  binding result: no recognition
[2]
  binding result: no recognition
[3]
  binding result: no recognition
[4]
  EC50 of peptide: 300 nM

B2: TCR64 (TCR, V domains shown)
Valpha: TQLLEQSPQFLSIQEGENLTVYCNSSSVFSSLQWYRQEPGEGPVLLVTVVTGGEVKKLKRLTFQFGDARKDSSLHITAAQPGDTGLYLCAGDVDTGTASKLTFGTGTRLQVTL
Vbeta: DVKVTQSSRYLVKRTGEKVFLECVQDMDHENMFWYRQDPGLGLRLIYFSYDVKMKEKGDIPEGYSVSREKKERFSLILESASTNQTSMYLCASSLLGSGALYEQYFGPGTRLTVT
[5]
  binding result: no recognition
[6]
  binding result: no recognition
[7]
  binding result: no recognition
[8]
  binding result: no recognition
[9]
  binding result: no recognition
[10]
  binding result: no recognition
[11]
  binding result: no recognition
[12]
  binding result: no recognition
[13]
  binding result: no recognition
[14]
  binding result: no recognition
[15]
  binding result: no recognition
[16]
  binding result: no recognition
[17]
  binding result: no recognition
[18]
  binding result: no recognition
[19]
  binding result: no recognition
[20]
  binding result: no recognition
[21]
  binding result: no recognition
[22]
  binding result: no recognition
[23]
  binding result: no recognition
[24]
  binding result: no recognition
[25]
  binding result: no recognition
[26]
  binding result: no recognition
[27]
  binding result: no recognition
[28]
  binding result: no recognition
[29]
  binding result: no recognition

B3: TCR50 (TCR, V domains shown)
Valpha: AQSVTQLDSHVSVSEGTPVLLRCNYSSSYSPSLFWYVQHPNKGLQLLLKYTSAATLVKGINGFEAEFKKSETSFHLTKPSAHMSDAAEYFCVVMATGFQKLVFGTGTRLLVSP
Vbeta: DSGVTQTPKHLITATGQRVTLRCSPRSGDLSVYWYQQSLDQGLQFLIQYYNGEERAKGNILERFSAQQFPDLHSELNLSSLELGDSALYFCASSVTSGSDEQFFGPGTRLTVL
[30]
  binding result: no recognition
[31]
  binding result: recognises
[32]
  binding result: no recognition
[33]
  binding result: recognises
[34]
  binding result: no recognition
[35]
  binding result: no recognition
[36]
  binding result: no recognition
[37]
  binding result: no recognition
[38]
  binding result: no recognition
[39]
  binding result: recognises
[40]
  binding result: no recognition
[41]
  binding result: no recognition
[42]
  EC50 of peptide: 30 nM
